Laboratory results as given in patent US10221404B2, “Method for modifying characteristics of a lipase” (Novozymes A/S, priority 2014, dated 2019).

Columns and labels:
[1] = AMSA wash performance, specificity of inhibitory effect of propeptide; details: for With inhibitor RP (wash): propeptide SEQ ID No: 4 in 320:1 molar ratio, 3 hours at 4° C., normalized to wash performance without inhibitor; for No inhibitor RP (wash): without propeptide SEQ ID No: 4, normalized per lipase
Procedure: (§1) Washing experiments were performed using Automatic Mechanical Stress Assay (AMSA) in order to assess the wash performance in laundry. The AMSA plate has a number of slots for test solutions and a lid firmly squeezing the laundry sample, the textile to be washed against all the slot openings. During the washing time, the plate, test solutions, textile and lid were vigorously shaken to bring the test solution in contact with the textile and apply mechanical stress in a regular, periodic oscillating manner. For further description see WO02/42740 especially the paragraph “Special method embodiments” at page 23-24.
(§2) The laundry experiments were conducted in Model Detergent B, pH8. The experimental conditions are specified below:
(§3) Final adjustments to the specified pH were done with NaOH or citric acid. Water hardness was adjusted to 15° dH by addition of CaCl2 and MgCl2 (Ca^2+:Mg^2+=4:1) to the test system.
(§4) After washing the textiles were flushed in tap water and excess water was removed from the textiles using filter paper and immediately thereafter the textiles were dried at 85° C. for 5 min.
(§5) The wash performance was measured as the color change of the washed soiled textile. The soil was cream mixed with turmeric. Turmeric contains the colorant curcumin, which function as a pH indicator by having pH dependent color change. Lipase activity leads to release of free fatty acids from the cream acylglycerides and this leads to pH decrease and thereby color change of the curcumin pH indicator. Lipase wash performance can therefore be expressed as the extent of color change of light reflected-emitted from the washed soiled textile when illuminated with white light.
(§6) Color measurements were made with a professional flatbed scanner (EPSON EXPRESSION 10000XL, Atea NS, Lautrupvang 6, 2750 Ballerup, Denmark), which was used to capture an image of the washed soiled textile. To extract a value for the light intensity from the scanned images, 24-bit pixel values from the image were converted into values for red, green and blue (RGB).
(§7) Color change due to lipase activity was measured as the increase in the reflection-emitting of green light (G) relative to the sum of reflected-emitted blue (B) and red (R) light. The wash performance (RP(Wash)) of a lipase relative to a reference lipase (Lipolase™) was calculated as: RP(Wash)=(G/(B+R)(tested lipase)−G/(B+R)(no enzyme))/(G/(B+R)(lipase ref.)−G/(B+R)(no enzyme)).
The inhibitory specificity of the isolated propeptide was determined by mixing the isolated propeptide in a 320:1 molar ratio with 5 different lipases including the active RmL. All enzymes were diluted in 10 mM succinic acid buffer, pH6.5, to a concentration of 1.5 uM and were mixed (1:1) with purified propeptide dilutions. After 3 hours incubation at 4° C. the lipase performance of the incubated lipase-inhibitor samples were determined by Automatic Mechanical Stress Assay (AMSA) as described above. The relative wash performance “RP(wash)” is for each lipase normalized to the wash performance without inhibitor.

[2] = Hydrolytic activity, kinetic assay with p-nitrophenyl acyl esters; format: biochemical; details: substrates C3, C6, C10, C12, C16 at 1 mM; 50 mM Tris pH 7.7, 0.4% TritonX-100; 405 nm for 5 minutes
Procedure: The hydrolytic activity of RmL with and without propeptide on various fatty acids was investigated in a kinetic assay using p-nitrophenyl acyl esters as substrate. The 100 mM stock solutions in DMSO of the substrates: p-Nitrophenyl butyrate (C3), p-Nitrophenyl caproate (C6), p-Nitrophenyl caprate (C10), p-Nitrophenyl laurate (C12) and p-Nitrophenyl palmitate (C16) (all from Sigma-Aldrich Danmark NS, Kirkebjerg Allé 84, 2605 Brondby; Cat. no.: C3:N-9876, C6: N-0502, C10: N-0252, C12: N-2002, C16: N-2752) were diluted to a final concentration of 1 mM into assay buffer (50 mM Tris; pH 7.7; 0.4% TritonX-100).
RmL with and without propeptide and appropriate controls: Buffer (negative), Lipex™ (positive) RmL with and without propeptide in 50 mM Hepes pH8.0; 10 ppm TritonX-100; 20 mM CaCl2 were added to the substrate solution in the following final concentrations: 0.01 mg/mL; 5×10^−3 mg/mL; […]; and 1.25×10^−4 mg/mL in 96-well NUNC plates (Cat. No: 260836, Kamstrupvej 90, DK-4000, Roskilde). Release of p-nitrophenol by hydrolysis of p-nitrophenyl acyl was monitored at 405 nm for 5 minutes in 10 second intervals on a Spectra max 190 (Molecular Devices GmbH, Bismarckring 39, 88400 Biberach an der Riss, GERMANY).

[3] = AMSA wash performance after activation with detergent and/or protease; parameters: key to No (RP) / Det (RP) / Sav (RP) / Det + Sav (RP): wash performance relative to reference lipase (Lipolase), RP ratio
Procedure: as §1, §2, §3, §4, §5, §6, §7
Wild type RmL without or with propeptide respectively were submitted to no, detergent, protease or detergent+protease treatment prior to performance test in AMSA to test the activation level of the lipase after the treatment. […] […] Wash performance of all samples were determined by Automatic Mechanical Stress Assay (AMSA) as described above.

B1: SEQ ID NO: 6 (MuciLip2CN): lipase of SEQ ID NO: 6, tested for propeptide specificity (protein)
chain: MVSFVSISQGISLFIVVSSMLTGSAHAAPASSHSNSSKNATTSDASTFTLPPIISSRVTPPKVPSGSHNVEDANVAKNKKWFEAHGGKLNVTKRADETVGGYTMDLPSNAPPLPAVPSTSTVVIASTAQISEFKKYAGIASTAYCRSVVPLNQWSCTNCLKFVPDGKLIKTFTSLVTDTNGFVLRSDAQKTIYVVFRGTNSIRSAITDLVFELTNYTPVSGAKVHTGFYASYKAVVSDYFPAVQSQLTAYPGYKVIVTGHSLGGAQALLAGMDLYQREPRLSKSNLAIYTVGCPRVGNPAFAYYVDSTGITFSRSVNNRDIVPHVPPQAWGFLHPGVEAWARSSSNVQICTPNIETGLCSNSIVPFTSFTDHLTYYDLNEGLCL
modifications: Mucor circinelloides
With inhibitor RP (wash) [1]: 1.10
No inhibitor RP (wash) [1]: 1.00

B2: SEQ ID NO: 5 (Lipex): commercial lipase product Lipex (Novozymes A/S), SEQ ID NO: 5 (protein, listed as Thermomyces lanuginosus)
chain: EVSQDLFNQFNLFAQYSAAAYCGKNNDAPAGTNITCTGNACPEVEKADATFLYSFEDSGVGDVTGFLALDNTNKLIVLSFRGSRSIENWIGNLNFDLKEINDICSGCRGHDGFTSSWRSVADTLRQKVEDAVREHPDYRVVFTGHSLGGALATVAGADLRGNGYDIDVFSYGAPRVGNRAFAEFLTVQTGGTLYRITHTNDIVPRLPPREFGYSHSSPEYWIKSGTLVPVRRRDIVKIEGIDATGGNNQPNIPDIPAHLWYFGLIGTCL
With inhibitor RP (wash) [1]: 0.89
No inhibitor RP (wash) [1]: 1.00

B3: SEQ ID NO: 7 (RhimiLip1): lipase of SEQ ID NO: 7, tested for propeptide specificity (protein)
chain: MVSFISISQGVSLCLLVSSMMLGSSAVPVAGHKGSVKATNGTDFQLPPLISSRCTPPSHPETTGDPDAEAYYINKSVQWYQAHGGNYTALIKRDTETVGGMTLDLPENPPPIPATSTAPSSDSGEVVTATAAQIKELTNYAGVAATAYCRSVVPGTKWDCKQCLKYVPDGKLIKTFTSLLTDTNGFILRSDAQKTIYVTFRGTNSFRSAITDMVFTFTDYSPVKGAKVHAGFLSSYNQVVKDYFPVVQDQLTAYPDYKVIVTGHSLGGAQALLAGMDLYQREKRLSPKNLSIYTVGCPRVGNNAFAYYVDSTGIPFHRTVHKRDIVPHVPPQAFGYLHPGVESWIKEDPADVQICTSNIETKQCSNSIVPFTSIADHLTYFGINEGSCL
modifications: Rhizopus microsporus var. chinensis
With inhibitor RP (wash) [1]: 0.92
No inhibitor RP (wash) [1]: 1.00

B4: RmL with propeptide: Rhizomucor miehei lipase with its native N-terminal propeptide non-covalently bound (inactive RmL) (protein, UniProt P19515 25-363, looked up)
pro-form: VPIKRQSNSTVDSLPPLIPSRTSAPSSSPSTTDPEAPAMSRNGPLPSDVETKYGMALNATSYPDSVVQAMSIDGGIRAATSQEINELTYYTTLSANSYCRTVIPGATWDCIHCDATEDLKIIKTWSTLIYDTNAMVARGDSEKTIYIVFRGSSSIRNWIADLTFVPVSYPPVSGTKVHKGFLDSYGEVQNELVATVLDQFKQYPSYKVAVTGHSLGGATALLCALDLYQREEGLSSSNLFLYTQGQPRVGDPAFANYVVSTGIPYRRTVNERDIVPHLPPAAFGFLHAGEEYWITDNSPETVQVCTSDLETSDCSNSIVPFTSVLDHLSYFGINTGLCT
modifications: pro-form
hydrolytic activity on p-nitrophenyl acyl esters [2]: no activity
Sav (RP) ([3]; 10 minutes in 1.35% (v/v) Savinase in 10 mM succinic acid pH6.5): 0.27
Det + Sav (RP) ([3]; 10 minutes in 1.35% (v/v) Savinase in 77% (w/w) Detergent B): 0.88
Det (RP) ([3]; 10 minutes in 77% (w/w) Model detergent B): 0.60
No (RP) ([3]; 60 minutes in 10 mM succinic acid pH6.5): 0.18
Sav (RP) ([3]; 60 minutes in 1.35% (v/v) Savinase in 10 mM succinic acid pH6.5): 0.39
Det + Sav (RP) ([3]; 60 minutes in 1.35% (v/v) Savinase in 77% (w/w) Detergent B): 0.85
Det (RP) ([3]; 60 minutes in 77% (w/w) Model detergent B): 0.69
activation level of the lipase ([3]; Savinase treatment in detergent, after 10 minutes): full activation

B5: isolated propeptide: propeptide of RmL, amino acid sequence SEQ ID No: 4, purified from RmL (protein, listed as Rhizomucor miehei)
chain: VPIKRQSNSTVDSLPPLIPSRTSAPSSSPSTTDPEAPAMSRNGPLPSDVETKYGMALNATSYPDSVVQAM
inhibitory specificity of the isolated propeptide ([1]; 320:1 molar ratio with different lipases): exclusively effect with RmL
